{"source": "the supplement of paper PMC10724198", "note": "± gives the standard deviation of the averaged measurements.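 Also: PSI is a weighted mean of sequencing reads over stability bins, variants kept only with over 10 reads, mCherry proximal and sfGFP distal, peptide attached via GGGS linker.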", "data": [{"test_system": "Saccharomyces cerevisiae", "assay": "protein stability index of tFT-peptide fusion (C-terminal peptide) (PSI (0-1 scale)); higher = more stable (slower turnover)", "settings": "genetic background: wild type; temperature: 30 C", "values": [{"sequence": "SRSFVPRNSPRI", "protein stability index": "0.6609 ± 0.0051"}, {"sequence": "GGAAGRRAAEVG", "protein stability index": "0.694 ± 0.013"}, {"sequence": "TLLSPRRHPFAR", "protein stability index": "0.674 ± 0.022"}, {"sequence": "GTWGGGGWSCES", "protein stability index": "0.725 ± 0.076"}, {"sequence": "LFCVAPLGSVSY", "protein stability index": "0.652 ± 0.033"}, {"sequence": "TTFHLCLFQKSS", "protein stability index": "0.584 ± 0.0071"}, {"sequence": "RYFSFNVSSCLD", "protein stability index": "0.767 ± 0.048"}, {"sequence": "LLGRRSHTPDEP", "protein stability index": "0.723 ± 0.013"}, {"sequence": "GVGGENRRNGTV", "protein stability index": "0.721 ± 0.11"}, {"sequence": "VGLGRPAAAWRR", "protein stability index": "0.71 ± 0.00097"}, {"sequence": "GGSARSIPVHVV", "protein stability index": "0.584 ± 0.025"}, {"sequence": "SKKRKRNKKKGE", "protein stability index": "0.74 ± 0.098"}, {"sequence": "PFVSHLDRWDIR", "protein stability index": "0.712 ± 0.041"}, {"sequence": "AYNFMTSVVPGK", "protein stability index": "0.744 ± 0.056"}, {"sequence": "FFAGASRFSSWS", "protein stability index": "0.752 ± 0.029"}, {"sequence": "PCSVLVWGVLLP", "protein stability index": "0.622 ± 0.032"}, {"sequence": "GGRARRGLGGPG", "protein stability index": "0.6758 ± 0.0034"}, {"sequence": "PPRPSSRVPPPA", "protein stability index": "0.65 ± 0.059"}, {"sequence": "LKRSYKKQRDNV", "protein stability index": "0.698 ± 0.14"}, {"sequence": "RKGHKSNRSKNE", "protein stability index": "0.705 ± 0.03"}, {"sequence": "CCKRWICLLRRK", "protein stability index": "0.646 ± 0.012"}, {"sequence": "RSWCAGMAGRRR", "protein stability index": "0.6626 ± 0.0043"}, {"sequence": "KKNLKTKKRQNI", "protein stability index": "0.66 ± 0.01"}, {"sequence": "FVPQPFTPPSSF", "protein stability index": "0.685 ± 0.065"}, {"sequence": "TIRKKKNRRNKE", "protein stability index": "0.731 ± 0.016"}, {"sequence": "PPPPSRLPYNPF", "protein stability index": "0.662 ± 0.023"}, {"sequence": "AEAVQQGVTIGG", "protein stability index": "0.68 ± 0.014"}, {"sequence": "RIAAVRVEGRDD", "protein stability index": "0.708 ± 0.026"}, {"sequence": "SFFVTVAGPFQI", "protein stability index": "0.686 ± 0.012"}, {"sequence": "SLHSSQYTRHSG", "protein stability index": "0.673 ± 0.024"}, {"sequence": "RRRAGSKEKQRK", "protein stability index": "0.703 ± 0.019"}, {"sequence": "DSHRRPGSPPPL", "protein stability index": "0.688 ± 0.11"}, {"sequence": "SPPPISIYPPFR", "protein stability index": "0.668 ± 0.024"}, {"sequence": "PDYNEIIEYTEG", "protein stability index": "0.706 ± 0.033"}, {"sequence": "GVGGCRVRGLGA", "protein stability index": "0.691 ± 0.017"}, {"sequence": "SSLLSLPLRCSF", "protein stability index": "0.717 ± 0.039"}, {"sequence": "YWLCITECHIRK", "protein stability index": "0.541 ± 0.0092"}, {"sequence": "TPGYWVPPPTIP", "protein stability index": "0.66 ± 0.027"}, {"sequence": "SPLFPPIPSSLS", "protein stability index": "0.7278 ± 0.00076"}, {"sequence": "SAPPPSPAPSPY", "protein stability index": "0.677 ± 0.023"}, {"sequence": "ADPNDSPPPASP", "protein stability index": "0.617 ± 0.026"}, {"sequence": "KQSNGEFNIATP", "protein stability index": "0.648 ± 0.046"}, {"sequence": "PYRPPPPLALSL", "protein stability index": "0.693 ± 0.015"}, {"sequence": "CGLSLRVICLEV", "protein stability index": "0.497 ± 0.02"}, {"sequence": "WISARQHQKTRL", "protein stability index": "0.702 ± 0.065"}, {"sequence": "GLVWRSRDDQLS", "protein stability index": "0.764 ± 0.07"}, {"sequence": "APFPMVSSLSFL", "protein stability index": "0.761 ± 0.037"}, {"sequence": "SATIRDILHCRF", "protein stability index": "0.8435 ± 0.0021"}, {"sequence": "GRYAGFESRFGA", "protein stability index": "0.666 ± 0.018"}, {"sequence": "RGGAGGRLGCGG", "protein stability index": "0.71 ± 0.071"}, {"sequence": "LFSSLNLFSSRD", "protein stability index": "0.7355 ± 0.0033"}, {"sequence": "CLLLSLRVPPFS", "protein stability index": "0.638 ± 0.012"}, {"sequence": "SSTSPPPVTPPD", "protein stability index": "0.625 ± 0.0096"}, {"sequence": "PHTLPPLPVSPT", "protein stability index": "0.67 ± 0.05"}, {"sequence": "VVGGAGRRYVEG", "protein stability index": "0.702 ± 0.036"}, {"sequence": "RFFGAVSFQFCL", "protein stability index": "0.699 ± 0.011"}, {"sequence": "NTQSRNKSYTER", "protein stability index": "0.671 ± 0.0091"}, {"sequence": "PSFFFFAAPLPL", "protein stability index": "0.623 ± 0.028"}, {"sequence": "PPRPPPPHHVPS", "protein stability index": "0.677 ± 0.093"}, {"sequence": "PTQSDSTSTSRI", "protein stability index": "0.69 ± 0.016"}, {"sequence": "NASVRMFIRTGC", "protein stability index": "0.6971 ± 0.00097"}, {"sequence": "EWACGRAGLKVV", "protein stability index": "0.491 ± 0.018"}, {"sequence": "GRAGLRIESSKY", "protein stability index": "0.692 ± 0.024"}, {"sequence": "GIRVEWVGRNRC", "protein stability index": "0.676 ± 0.023"}, {"sequence": "MMFRRLPTRGRF", "protein stability index": "0.6951 ± 0.0021"}, {"sequence": "PVPPQHPPLKSI", "protein stability index": "0.705 ± 0.059"}, {"sequence": "SGALSDVCVMLL", "protein stability index": "0.652 ± 0.026"}, {"sequence": "LARGGAAIGGES", "protein stability index": "0.729 ± 0.086"}, {"sequence": "QQQSTKHSEERV", "protein stability index": "0.691 ± 0.014"}, {"sequence": "RKKPRKLRETDN", "protein stability index": "0.649 ± 0.053"}, {"sequence": "QSQMEKGTIVWT", "protein stability index": "0.705 ± 0.011"}, {"sequence": "LSLFLAWSLFFL", "protein stability index": "0.487 ± 0.083"}, {"sequence": "PSPPPPPPPGSF", "protein stability index": "0.677 ± 0.06"}, {"sequence": "KRKKKRQKNKGK", "protein stability index": "0.766 ± 0.13"}, {"sequence": "GRVSSTRKVGAI", "protein stability index": "0.678 ± 0.022"}, {"sequence": "GGGGSTIGVYVL", "protein stability index": "0.686 ± 0.0047"}, {"sequence": "GGGVVRGLEQRA", "protein stability index": "0.637 ± 0.074"}, {"sequence": "DLPRCPPSPPPS", "protein stability index": "0.713 ± 0.046"}, {"sequence": "KYIGHSENATSK", "protein stability index": "0.71 ± 0.067"}, {"sequence": "RHKLYPRIVLNR", "protein stability index": "0.699 ± 0.055"}, {"sequence": "GIYARPRPTQCP", "protein stability index": "0.6718 ± 0.0037"}, {"sequence": "ITPLVQRPSSLR", "protein stability index": "0.689 ± 0.088"}, {"sequence": "GHSLDPSVVSPD", "protein stability index": "0.674 ± 0.068"}, {"sequence": "PPPPRPPATPFP", "protein stability index": "0.676 ± 0.052"}, {"sequence": "NHVAPNSPSPQD", "protein stability index": "0.731 ± 0.027"}, {"sequence": "PPPPPPPPRLTP", "protein stability index": "0.754 ± 0.074"}, {"sequence": "PYSGSPRALPRP", "protein stability index": "0.716 ± 0.069"}, {"sequence": "IRLFAPVVFLPL", "protein stability index": "0.644 ± 0.054"}, {"sequence": "TIVQNLEIVQAR", "protein stability index": "0.648 ± 0.13"}, {"sequence": "PQFSPCRLALLS", "protein stability index": "0.616 ± 0.018"}, {"sequence": "RGGPPPPPSITL", "protein stability index": "0.851 ± 0.12"}, {"sequence": "LVSVSVGFFLLL", "protein stability index": "0.499 ± 0.047"}, {"sequence": "SELEADKRIKRK", "protein stability index": "0.739 ± 0.094"}, {"sequence": "LRGVSGTLSSSC", "protein stability index": "0.6733 ± 0.0045"}, {"sequence": "KKKKQKKKRKRE", "protein stability index": "0.718 ± 0.028"}, {"sequence": "LPPPHYPHHTAS", "protein stability index": "0.679 ± 0.052"}, {"sequence": "HSDRPSPTRPQP", "protein stability index": "0.6431 ± 0.0029"}, {"sequence": "SPPLGFAPPSRS", "protein stability index": "0.853 ± 0.046"}, {"sequence": "SMFLGLCGSIYG", "protein stability index": "0.699 ± 0.056"}, {"sequence": "ASRWVLLGGGGV", "protein stability index": "0.693 ± 0.03"}, {"sequence": "NVNMGSRGQFNF", "protein stability index": "0.628 ± 0.026"}]}]}
